Assays:
TnGalNAcT = test: Transfer of 6-modified GalNAc-UDP derivatives to trimmed brentuximab by TnGalNAcT (mass spectrometric analysis); format: biochemical, Trichoplusia ni; conditions: sugar nucleotide 5 mM; TnGalNAcT 1.5 mg/mL; trimmed brentuximab 15 mg/mL; 30 °C overnight
Method: Bentuximab was trimmed analogues to the trimming of trastuzumab as described in example 6.
Trimmed bentuximab (15 mg/mL) was incubated with 6-amino-6-deoxy-GalNAc-UDP 94 (5 mM) and TnGalNAcT (1.5 mg/mL) in 10 mM MnCl2 and 25 mM Tris-HCl pH 8.0 at 30° C. overnight. A sample of the reaction mixture (2 μL) was incubated for 1 hour at 37° C. with Fabricator™ (1.25 U/μL) in phosphate-buffered saline (PBS) pH 6.6 in a total volume of 10 μL.
Trimmed bentuximab (15 mg/mL) was incubated with 6-(2-azidoacetamido)-6-deoxy-GalNAc 93 (5 mM) and TnGalNAcT (1.5 mg/mL) in 10 mM MnCl2 and 25 mM Tris-HCl pH 8.0 at 30° C. overnight. A sample of the reaction mixture (2 μL) was incubated for 1 hour at 37° C. with Fabricator™ (1.25 U/μL) in phosphate-buffered saline (PBS) pH 6.6 in a total volume of 10 μL.

β-(1,4)-GalNAcT = β-(1,4)-GalNAcT (Caenorhabditis elegans, UniProt Q9GUM2); conditions: as donor substrate compared with UDP-GalNAc; cited from earlier work
[1] = tested on: core GlcNAc(Fuc) substituted trastuzumab; test: Glycosyltransfer of 6-azido-GalNAc-UDP to trimmed trastuzumab under the action of GalNAcTs (mass spectral analysis); format: biochemical; conditions: 6-azido-GalNAc-UDP 1 mM; for Conversions (%) of GlcNAc(Fuc) substituted trastuzumab into 6-azido-GalNAc-GlcNAc(Fuc)-substituted trastuzumab: trimmed trastuzumab 10 mg/mL; for product formation, mass spectral analysis of Fabricator-digested samples: both enzyme concentrations (0.2 or 0.5 mg/mL)
Method: (§1) Prior to mass spectral analysis, IgGs were either treated with DTT, which allows analysis of both light and heavy chain, or treated with Fabricator™ (commercially available from Genovis, Lund, Sweden), which allows analysis of the Fc/2 fragment. For analysis of both light and heavy chain, a solution of 20 μg (modified) IgG was incubated for 5 minutes at 37° C. with 100 mM DTT in a total volume of 4 μL. If present, azide-functionalities are reduced to amines under these conditions. For analysis of the Fc/2 fragment, a solution of 20 μg (modified) IgG was incubated for 1 hour at 37° C. with Fabricator™ (1.25 U/μL) in phosphate-buffered saline (PBS) pH 6.6 in a total volume of 10 μL. After reduction or Fabricator-digestion the samples were washed trice with milliQ using an Amicon Ultra-0.5, Ultracel-10 Membrane (Millipore) resulting in a final sample volume of approximately 40 μL. Next, the samples were analyzed by electrospray ionization time-of-flight (ESI-TOF) on a JEOL AccuTOF. Deconvoluted spectra were obtained using Magtran software.
Glycan trimming of trastuzumab was performed with endo S from Streptococcus pyogenes (commercially available from Genovis, Lund, Sweden). Thus, trastuzumab (10 mg/mL) was incubated with endo S (40 U/mL) in 25 mM Tris pH 8.0 for approximately 16 hours at 37° C. The deglycosylated IgG was concentrated and washed with 10 mM MnCl2 and 25 mM Tris-HCl pH 8.0 using an Amicon Ultra-0.5, Ultracel-10 Membrane (Millipore). […] The two peaks of heavy chain belonged to one major product (49496 Da, 90% of total heavy chain), resulting from core GlcNAc(Fuc) substituted trastuzumab, and a minor product (49351 Da, ±10% of total heavy chain), resulting from trimmed trastuzumab.
Incorporation of 6-azidoGalNAc was tested for CeGalNAcT(30-383) (identified by SEQ ID NO: 6), AsGalNAcT(30-383) (identified by SEQ ID NO: 7), TnGalNAcT(33-421) (identified by SEQ ID NO: 8) and DmGalNAcT(47-403) (identified by SEQ ID NO: 9), which were expressed and purified as described in example 5. Trimmed trastuzumab (10 mg/mL), obtained by endo S treatment of trastuzumab as described above, was incubated with 6-azido-GalNAc-UDP (1 mM, commercially available from GlycoHub) in 10 mM MnCl2 and 25 mM Tris-HCl pH 7.5 and either 0.2 or 0.5 mg/mL of one of the above mentioned GalNAcTs.

[2] = cited from earlier work
[3] = tested on: core GlcNAc(Fuc) substituted trastuzumab; test: Glycosyltransfer of 6-azido-Gal-UDP to trimmed trastuzumab under the action of bovine β(1,4)-Gal-T1; format: biochemical; conditions: 0.1 or 0.5 mg/mL enzyme; 6-azido-Gal-UDP 1 mM; 30 °C overnight
Method: as §1
Glycan trimming of trastuzumab was performed with endo S from Streptococcus pyogenes (commercially available from Genovis, Lund, Sweden). Thus, trastuzumab (10 mg/mL) was incubated with endo S (40 U/mL) in 25 mM Tris pH 8.0 for approximately 16 hours at 37° C. […]

Sequence of β-(1,4)-GalNAcT (Q9GUM2 whole entry): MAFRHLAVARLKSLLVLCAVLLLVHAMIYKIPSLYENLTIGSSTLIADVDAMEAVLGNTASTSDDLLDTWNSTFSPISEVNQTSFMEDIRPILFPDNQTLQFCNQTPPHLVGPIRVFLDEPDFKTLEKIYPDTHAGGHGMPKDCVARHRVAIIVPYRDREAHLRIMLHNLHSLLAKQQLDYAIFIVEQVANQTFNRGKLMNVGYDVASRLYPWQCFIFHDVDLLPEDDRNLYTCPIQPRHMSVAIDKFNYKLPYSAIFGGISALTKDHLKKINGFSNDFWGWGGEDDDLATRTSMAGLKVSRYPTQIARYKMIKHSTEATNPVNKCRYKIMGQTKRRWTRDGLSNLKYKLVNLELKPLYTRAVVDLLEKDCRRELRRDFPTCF

Molecule	Conversions (%) of GlcNAc(Fuc) substituted trastuzumab into 6-azido-GalNAc-GlcNAc(Fuc)-substituted trastuzumab ([1]; 0.2 mg/mL enzyme)	Conversions (%) of GlcNAc(Fuc) substituted trastuzumab into 6-azido-GalNAc-GlcNAc(Fuc)-substituted trastuzumab ([1]; 0.5 mg/mL enzyme)	product formation, mass spectral analysis of Fabricator-digested samples [1]	other results
CC(=O)NC1C(OP(=O)(O)OP(=O)(O)OCC2OC(n3ccc(=O)[nH]c3=O)C(O)C2O)OC(CN)C(O)C1O (stereo not drawn) [compound 94, 6-amino-6-deoxy-GalNAc-UDP]				conversion to the modified brentuximab product (TnGalNAcT): full conversion
CC(=O)NC1C(OP(=O)(O)OP(=O)(O)OCC2OC(n3ccc(=O)[nH]c3=O)C(O)C2O)OC(CNC(=O)CN=[N+]=[N-])C(O)C1O (stereo not drawn) [compound 93, 6-(2-azidoacetamido)-6-deoxy-GalNAc-UDP]				conversion to the modified brentuximab product (TnGalNAcT): 70%
CC(=O)N[C@H]1[C@@H](OP(=O)(O)OP(=O)(O)OC[C@H]2O[C@@H](n3ccc(=O)[nH]c3=O)[C@H](O)[C@@H]2O)O[C@H](CO)[C@@H](O)[C@@H]1O [UDP-GlcNAc]				transferase activity remains (β-(1,4)-GalNAcT): 0.7%
CeGalNAcT (30-383): truncated Caenorhabditis elegans β-(1,4)-GalNAcT enzyme, amino acids 30-383 of SEQ ID NO: 2	0%	0%	no product formation	
DmGalNAcT (47-403): truncated Drosophila melanogaster β-(1,4)-GalNAcT enzyme, amino acids 47-403 of SEQ ID NO: 5 (protein, DmGalNAcT (47-403)) HKYAHIYGNASSDGAGGSEASRLPASPLALSKDRERDQELNGGPNSTIRTVIATANFTSIPQDLTRFLLGTKKFLPPRQKSTSALLANCTDPDPRDGGPITPNTTLESLDVIEAELGPLLRPGGAFEPENCNAQHHVAIVVPFRDRYAHLLLFLRNIHPFLMKQRIAYRIFIVEQTNGKPFNRAAMMNIGYLEALKLYQWDCFIFHDVDLLPLDDRNLYNCPRQPRHMSVAIDTLNFRLPYRSIFGGVSAMTREHFQAVNGFSNSFFGWGGEDDDMSNRLKHANLFISRYPVNIARYKMLKHQKEKANPKRYENLQNGMSKIEQDGINSIKYSIYSIKQFPTFTWYLAELKNSERKS	0%	0%	no product formation	
AsGalNAcT (30-383): truncated Ascaris sum β-(1,4)-GalNAcT enzyme, amino acids 30-383 of SEQ ID NO: 3 (protein, AsGalNAcT (30-383)) DYSFWSPAFIISAPKTLTTLQPFSQSTSTNDLAVSALESVEFSMLDNSSILHASDNWTNDELVMRAQNENLQLCPMTPPALVGPIKVWMDAPSFAELERLYPFLEPGGHGMPTACRARHRVAIVVPYRDRESHLRTFLHNLHSLLTKQQLDYAIFVVEQTANETFNRAKLMNVGYAEAIRLYDWRCFIFHDVDLLPEDDRNLYSCPDEPRHMSVAVDKFNYKLPYGSIFGGISALTREQFEGINGFSNDYWGWGGEDDDLSTRVTLAGYKISRYPAEIARYKMIKHNSEKKNPVNRCRYKLMSATKSRWRNDGLSSLSYDLISLGRLPLYTHIKVDLLEKQSRRYLRTHGFPTC	10%	30%	partial conversion	
TnGalNAcT (33-421): truncated Trichoplusia ni β-(1,4)-GalNAcT enzyme, amino acids 33-421 of SEQ ID NO: 4 (protein, TnGalNAcT(33-421)) SPLRTYLYTPLYNATQPTLRNVERLAANWPKKIPSNYIEDSEEYSIKNISLSNHTTRASVVHPPSSITETASKLDKNMTIQDGAFAMISPTPLLITKLMDSIKSYVTTEDGVKKAEAVVTLPLCDSMPPDLGPITLNKTELELEWVEKKFPEVEWGGRYSPPNCTARHRVAIIVPYRDRQQHLAIFLNHMHPFLMKQQIEYGIFIVEQEGNKDFNRAKLMNVGFVESQKLVAEGWQCFVFHDIDLLPLDTRNLYSCPRQPRHMSASIDKLHFKLPYEDIFGGVSAMTLEQFTRVNGFSNKYWGWGGEDDDMSYRLKKINYHIARYKMSIARYAMLDHKKSTPNPKRYQLLSQTSKTFQKDGLSTLEYELVQVVQYHLYTHILVNIDERS	40%	60%	partial conversion	
β4GalT(Y289L,M344H): double mutant β-1,4-galactosyltransferase described by Ramakrishnan et al. (protein, UniProt P08037 1-402, looked up, variant Y289L M344H) MKFREPLLGGSAAMPGASLQRACRLLVAVCALHLGVTLVYYLAGRDLRRLPQLVGVHPPLQGSSHGAAAIGQPSGELRLRGVAPPPPLQNSSKPRSRAPSNLDAYSHPGPGPGPGSNLTSAPVPSTTTRSLTACPEESPLLVGPMLIEFNIPVDLKLVEQQNPKVKLGGRYTPMDCISPHKVAIIIPFRNRQEHLKYWLYYLHPILQRQQLDYGIYVINQAGESMFNRAKLLNVGFKEALKDYDYNCFVFSDVDLIPMNDHNTYRCFSQPRHISVAMDKFGFSLPYVQLFGGVSALSKQQFLSINGFPNNYWGWGGEDDDIYNRLAFRGMSVSRPNAVIGKCRHIRHSRDKKNEPNPQRFDRIAHTKETMLSDGLNSLTYMVLEVQRYPLYTKITVDIGTPS				activity in the presence of Mg2+ ([2]; Mg2+): 25-30%; loss of Mn2+-dependent activity ([2]; Mn2+): 98%
bovine β(1,4)-Gal-T1: bovine β(1,4)-galactosyltransferase, commercially available from Sigma Aldrich (protein, Bos Taurus GalT Y289L mutant, bovine β(1,4)-galactosyltransferase, commercially available from Sigma Aldrich) MKFREPLLGGSAAMPGASLQRACRLLVAVCALHLGVTLVYYLAGRDLRRLPQLVGVHPPLQGSSHGAAAIGQPSGELRLRGVAPPPPLQNSSKPRSRAPSNLDAYSHPGPGPGPGSNLTSAPVPSTTTRSLTACPEESPLLVGPMLIEFNIPVDLKLIEQQNPKVKLGGRYTPMDCISPHKVAIIILFRNRQEHLKYWLYYLHPMVQRQQLDYGIYVINQAGESMFNRAKLLNVGFKEALKDYDYNCFVFSDVDLIPMNDHNTYRCFSQPRHISVAMDKFGFSLPYVQLFGGVSALSKQQFLSINGFPNNYWGWGGEDDDIYNRLAFRGMSVSRPNAVIGKCRMIRHSRDKKNEPNPQRFDRIAHTKETMLSDGLNSLTYMVLEVQRYPLYTKITVDIGTPS				product formation, mass spectral analysis of reduced samples [3]: no product formation
